Test results as given in US6570002 (Johns Hopkins, dated 2003).

Biological target: T1, Aven (human, UniProt Q9NQS1 1-362)
T1 construct: also called Bif-1
T1 sequence: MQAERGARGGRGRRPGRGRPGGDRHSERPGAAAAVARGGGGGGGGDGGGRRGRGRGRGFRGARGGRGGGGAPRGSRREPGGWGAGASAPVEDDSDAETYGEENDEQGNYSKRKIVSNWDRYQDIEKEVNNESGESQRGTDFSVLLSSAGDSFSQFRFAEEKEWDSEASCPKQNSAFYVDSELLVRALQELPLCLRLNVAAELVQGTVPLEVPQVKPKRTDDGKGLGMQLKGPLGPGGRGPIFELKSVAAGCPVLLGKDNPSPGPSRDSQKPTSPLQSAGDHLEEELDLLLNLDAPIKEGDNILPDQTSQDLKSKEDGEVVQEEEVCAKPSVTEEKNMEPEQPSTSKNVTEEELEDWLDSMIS
Assay: yeast two-hybrid / co-immunoprecipitation (FIG. 6)

binding result: no binding
B1: Bak (other, UniProt Q16611 1-211, looked up)
chain: MASGQGPGPPRQECGEPALPSASEEQVAQDTEEVFRSYVFYRHQQEQEAEGVAAPADPEMVTLPLQPSSTMGQVGRQLAIIGDDINRRYDSEFQTMLQHLQPTAENAYEYFTKIATSLFESGINWGRVVALLGFGYRLALHVYQHGLTGFLGQVTRFVVDFMLHHCIARWIAQRGGWVAALNLGNGPILNVLVVLGVVLLGQFVVRRFFKS
